According to patent US20200115422A1 (OXFORD UNIVERSITY INNOVATION, published 2020):

Legend:
AffiHER2-DogTag = assay: cell-based or functional assay
DogTag-mClover3 = assay: cell-based or functional assay
MBP-DogTag = assay: cell-based or functional assay
SUMO-DogTag = assay: cell-based or functional assay
[1] = target: DogTag-HaloTag7SS fusion protein; assay: cell-based or functional assay
IMX-DogTag = assay: cell-based or functional assay
biotinylated SnoopLigase = target: T1, biotinylated SnoopLigase (biotin on the AP peptide (BirA biotinylation)); assay: competition elution at 37 °C from biotin-SnoopLigase on streptavidin-agarose; SDS-PAGE
T1 construct: Captured or immobilised on streptavidin-agarose in the elution experiments; also called Biotin-SnoopLigase; biotin-SnoopLigase; not shown: N-terminal His6-tag and flexible GS-rich linker; AP, substrate peptide for BirA biotinylation
T1 chain: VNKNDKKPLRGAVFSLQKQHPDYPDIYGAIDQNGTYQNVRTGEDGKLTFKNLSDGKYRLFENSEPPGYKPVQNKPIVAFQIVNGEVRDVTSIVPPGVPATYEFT

For MBP-SnoopTagJr, which Percentage of DogTag partner reacted (AffiHER2-DogTag) is on record?
The Percentage of DogTag partner reacted was 100%.

What about the Percentage of SnoopTagJr partner reacted (AffiHER2-DogTag) of the same molecule?
The Percentage of SnoopTagJr partner reacted was 93.3%.

And the Percentage of DogTag partner reacted (DogTag-mClover3)?
Its Percentage of DogTag partner reacted is 85.4%.

What about the Percentage of SnoopTagJr partner reacted (DogTag-mClover3) of the same molecule?
Its Percentage of SnoopTagJr partner reacted is 79.5%.

And the Percentage of DogTag partner reacted (MBP-DogTag)?
The Percentage of DogTag partner reacted was 95%.

What about the Percentage of DogTag partner reacted (SUMO-DogTag) of the same molecule?
Its Percentage of DogTag partner reacted is 99%.

And the Percentage of SnoopTagJr partner reacted (SUMO-DogTag)?
The Percentage of SnoopTagJr partner reacted was 99.1%.

How did the Percentage of DogTag partner reacted (AffiHER2-DogTag) turn out when SnoopTagJr-mEGFP was run?
Its Percentage of DogTag partner reacted is 99.9%.

And the Percentage of SnoopTagJr partner reacted (AffiHER2-DogTag)?
The Percentage of SnoopTagJr partner reacted was 99.9%.

What about the Percentage of DogTag partner reacted (DogTag-mClover3) of the same molecule?
The Percentage of DogTag partner reacted was 82.3%.

And the Percentage of SnoopTagJr partner reacted (DogTag-mClover3)?
The Percentage of SnoopTagJr partner reacted was 89.4%.

And the Percentage of DogTag partner reacted (MBP-DogTag)?
The Percentage of DogTag partner reacted was 87.8%.

And the Percentage of SnoopTagJr partner reacted (MBP-DogTag)?
The Percentage of SnoopTagJr partner reacted was 99.7%.

And the Percentage of DogTag partner reacted (SUMO-DogTag)?
The Percentage of DogTag partner reacted was 99.1%.

What about the Percentage of SnoopTagJr partner reacted (SUMO-DogTag) of the same molecule?
Its Percentage of SnoopTagJr partner reacted is 100%.

How did the Percentage of DogTag partner reacted (AffiHER2-DogTag) turn out when SnoopTagJr-AffiHER2 was run?
The Percentage of DogTag partner reacted was 99.9%.

What about the Percentage of SnoopTagJr partner reacted (AffiHER2-DogTag) of the same molecule?
The Percentage of SnoopTagJr partner reacted was 100%.

What about the reaction yield [1] of the same molecule?
The reaction yield was 90%.

What about the Percentage of DogTag partner reacted (DogTag-mClover3) of the same molecule?
The Percentage of DogTag partner reacted was 94%.

What about the Percentage of SnoopTagJr partner reacted (DogTag-mClover3) of the same molecule?
Its Percentage of SnoopTagJr partner reacted is 99.8%.

And the Percentage of DogTag partner reacted (MBP-DogTag)?
The Percentage of DogTag partner reacted was 98.4%.

And the Percentage of SnoopTagJr partner reacted (MBP-DogTag)?
The Percentage of SnoopTagJr partner reacted was 100%.

What about the Percentage of DogTag partner reacted (SUMO-DogTag) of the same molecule?
The Percentage of DogTag partner reacted was 99.9%.

What about the Percentage of SnoopTagJr partner reacted (SUMO-DogTag) of the same molecule?
Its Percentage of SnoopTagJr partner reacted is 99.9%.

What about the reaction yield (SUMO-DogTag) of the same molecule?
The reaction yield was 99%.

SnoopTagJr-MBP was tested. Which reaction yield (IMX-DogTag) did it give?
Its reaction yield is 96%.

Which results are given for HaloTag7SS-SnoopTagJr?
Percentage of DogTag partner reacted (AffiHER2-DogTag): 100%; Percentage of SnoopTagJr partner reacted (AffiHER2-DogTag): 99.3%; Percentage of DogTag partner reacted (DogTag-mClover3): 96.1%; Percentage of SnoopTagJr partner reacted (DogTag-mClover3): 98%; Percentage of DogTag partner reacted (MBP-DogTag): 97%; Percentage of DogTag partner reacted (SUMO-DogTag): 99.7%; Percentage of SnoopTagJr partner reacted (SUMO-DogTag): 99%

B1: SnoopTagJr:DogTag competitor peptide (peptide)
peptide 1: KLGSIEFIKVNK
peptide 2: DIPATYEFTDGKHYITNEPIPPK
modifications: not fully specified; Asn 17 joined by an isopeptide bond to Lys 9 of SnoopTagJr; Lys 9 joined by an isopeptide bond to Asn 17 of DogTag
notes: Made from SUMO-DogTag and synthetic SnoopTagJr peptide with immobilised HaloTag7-SnoopLigase, then cut from SUMO by Ulp1; also called SnoopTagJr:DogTag peptide conjugate; DogTag:SnoopTagJr peptide
Does B1 bind (biotinylated SnoopLigase)?
Result: binds
